Measured values taken from US20220204580A1 (AstraZeneca / MedImmune, published 2022).
Numbered stars: 1 amine (or outer) side, 2 acyl side, 3 side chain; on linkers, the order of the positions; unused ones are H or OH. Bridge positions count the residues as written; N and C are the ends. Square brackets hold non-standard residues; d marks the D form. Side chains are listed from the residue outwards. Ends that are not written are not given here. * marks the point of attachment. C20 diacid = O=C(O)CCCCCCCCCCCCCCCCCCC(=O)*; C18 diacid = O=C(O)CCCCCCCCCCCCCCCCC(=O)*; γGlu = O=C(O)[C@H](CCC(=O)[*:2])N[*:1]; Hyp = O=C(O)[C@@H]1C[C@@H](O)CN1; Dab = NCC[C@H](N)C(=O)O; Aib = CC(C)(N)C(=O)O

B1: Peptide 118 (SEQ ID NO: 118) (peptide)
peptide: K([γGlu-γGlu-C20 diacid])CNIATCATQRLANFLVHSIANFGPILPPTNVGSRTY-NH2
modifications: disulfide 2-7; N-terminus assumed
SMILES: CC[C@H](C)[C@H](NC(=O)[C@H](CO)NC(=O)[C@H](Cc1c[nH]cn1)NC(=O)[C@@H](NC(=O)[C@H](CC(C)C)NC(=O)[C@H](Cc1ccccc1)NC(=O)[C@H](CC(N)=O)NC(=O)[C@H](C)NC(=O)[C@H](CC(C)C)NC(=O)[C@H](CCCNC(=N)N)NC(=O)[C@H](CCC(N)=O)NC(=O)[C@@H](NC(=O)[C@H](C)NC(=O)[C@@H]1CSSC[C@H](NC(=O)[C@@H](N)CCCCNC(=O)CC[C@H](NC(=O)CC[C@H](NC(=O)CCCCCCCCCCCCCCCCCCC(=O)O)C(=O)O)C(=O)O)C(=O)N[C@@H](CC(N)=O)C(=O)N[C@@H]([C@@H](C)CC)C(=O)N[C@@H](C)C(=O)N[C@@H]([C@@H](C)O)C(=O)N1)[C@@H](C)O)C(C)C)C(=O)N[C@@H](C)C(=O)N[C@@H](CC(N)=O)C(=O)N[C@@H](Cc1ccccc1)C(=O)NCC(=O)N1CCC[C@H]1C(=O)N[C@H](C(=O)N[C@@H](CC(C)C)C(=O)N1CCC[C@H]1C(=O)N1CCC[C@H]1C(=O)N[C@H](C(=O)N[C@@H](CC(N)=O)C(=O)N[C@H](C(=O)NCC(=O)N[C@@H](CO)C(=O)N[C@@H](CCCNC(=N)N)C(=O)N[C@H](C(=O)N[C@@H](Cc1ccc(O)cc1)C(N)=O)[C@@H](C)O)C(C)C)[C@@H](C)O)[C@@H](C)CC
B2: Peptide 119 (SEQ ID NO: 119) (peptide)
peptide: K([γGlu-γGlu-C20 diacid])CNTATCATQRLANFLVHSPPNFPAILSPTNVGSNTY-NH2
modifications: disulfide 2-7; N-terminus assumed
SMILES: CC[C@H](C)[C@H](NC(=O)[C@H](C)NC(=O)[C@@H]1CCCN1C(=O)[C@H](Cc1ccccc1)NC(=O)[C@H](CC(N)=O)NC(=O)[C@@H]1CCCN1C(=O)[C@@H]1CCCN1C(=O)[C@H](CO)NC(=O)[C@H](Cc1c[nH]cn1)NC(=O)[C@@H](NC(=O)[C@H](CC(C)C)NC(=O)[C@H](Cc1ccccc1)NC(=O)[C@H](CC(N)=O)NC(=O)[C@H](C)NC(=O)[C@H](CC(C)C)NC(=O)[C@H](CCCNC(=N)N)NC(=O)[C@H](CCC(N)=O)NC(=O)[C@@H](NC(=O)[C@H](C)NC(=O)[C@@H]1CSSC[C@H](NC(=O)[C@@H](N)CCCCNC(=O)CC[C@H](NC(=O)CC[C@H](NC(=O)CCCCCCCCCCCCCCCCCCC(=O)O)C(=O)O)C(=O)O)C(=O)N[C@@H](CC(N)=O)C(=O)N[C@@H]([C@@H](C)O)C(=O)N[C@@H](C)C(=O)N[C@@H]([C@@H](C)O)C(=O)N1)[C@@H](C)O)C(C)C)C(=O)N[C@@H](CC(C)C)C(=O)N[C@@H](CO)C(=O)N1CCC[C@H]1C(=O)N[C@H](C(=O)N[C@@H](CC(N)=O)C(=O)N[C@H](C(=O)NCC(=O)N[C@@H](CO)C(=O)N[C@@H](CC(N)=O)C(=O)N[C@H](C(=O)N[C@@H](Cc1ccc(O)cc1)C(N)=O)[C@@H](C)O)C(C)C)[C@@H](C)O
B3: Peptide 122 (SEQ ID NO: 122) (peptide)
peptide: K([γGlu-γGlu-C18 diacid])CNTATCATQRLANFLVHSS[Aib]NFPAILSPT[Dab]VGSNTY-NH2
modifications: disulfide 2-7; N-terminus assumed
SMILES: CC[C@H](C)[C@H](NC(=O)[C@H](C)NC(=O)[C@@H]1CCCN1C(=O)[C@H](Cc1ccccc1)NC(=O)[C@H](CC(N)=O)NC(=O)C(C)(C)NC(=O)[C@H](CO)NC(=O)[C@H](CO)NC(=O)[C@H](Cc1c[nH]cn1)NC(=O)[C@@H](NC(=O)[C@H](CC(C)C)NC(=O)[C@H](Cc1ccccc1)NC(=O)[C@H](CC(N)=O)NC(=O)[C@H](C)NC(=O)[C@H](CC(C)C)NC(=O)[C@H](CCCNC(=N)N)NC(=O)[C@H](CCC(N)=O)NC(=O)[C@@H](NC(=O)[C@H](C)NC(=O)[C@@H]1CSSC[C@H](NC(=O)[C@@H](N)CCCCNC(=O)CC[C@H](NC(=O)CC[C@H](NC(=O)CCCCCCCCCCCCCCCCC(=O)O)C(=O)O)C(=O)O)C(=O)N[C@@H](CC(N)=O)C(=O)N[C@@H]([C@@H](C)O)C(=O)N[C@@H](C)C(=O)N[C@@H]([C@@H](C)O)C(=O)N1)[C@@H](C)O)C(C)C)C(=O)N[C@@H](CC(C)C)C(=O)N[C@@H](CO)C(=O)N1CCC[C@H]1C(=O)N[C@H](C(=O)N[C@@H](CCN)C(=O)N[C@H](C(=O)NCC(=O)N[C@@H](CO)C(=O)N[C@@H](CC(N)=O)C(=O)N[C@H](C(=O)N[C@@H](Cc1ccc(O)cc1)C(N)=O)[C@@H](C)O)C(C)C)[C@@H](C)O
B4: Peptide 121 (SEQ ID NO: 121) (peptide)
peptide: K([γGlu-γGlu-C20 diacid])CNTATCATQRLANFLVHSS[Aib]NF[Hyp]AILSPTNVGSNTY-NH2
modifications: disulfide 2-7; not fully specified; printed as K(γE-γE-C20diacid)[CNTATC]ATQRLANFLVHSS(Aib)NF(Hyp)AILSPTNVGSNTY-amide
B5: Peptide 120 (SEQ ID NO: 120) (peptide)
peptide: K([γGlu-γGlu-C20 diacid])CNAATCATQRLANWLVHSSPNFPAILSPTNVGSNTY-NH2
modifications: disulfide 2-7; N-terminus assumed
SMILES: CC[C@H](C)[C@H](NC(=O)[C@H](C)NC(=O)[C@@H]1CCCN1C(=O)[C@H](Cc1ccccc1)NC(=O)[C@H](CC(N)=O)NC(=O)[C@@H]1CCCN1C(=O)[C@H](CO)NC(=O)[C@H](CO)NC(=O)[C@H](Cc1c[nH]cn1)NC(=O)[C@@H](NC(=O)[C@H](CC(C)C)NC(=O)[C@H](Cc1c[nH]c2ccccc12)NC(=O)[C@H](CC(N)=O)NC(=O)[C@H](C)NC(=O)[C@H](CC(C)C)NC(=O)[C@H](CCCNC(=N)N)NC(=O)[C@H](CCC(N)=O)NC(=O)[C@@H](NC(=O)[C@H](C)NC(=O)[C@@H]1CSSC[C@H](NC(=O)[C@@H](N)CCCCNC(=O)CC[C@H](NC(=O)CC[C@H](NC(=O)CCCCCCCCCCCCCCCCCCC(=O)O)C(=O)O)C(=O)O)C(=O)N[C@@H](CC(N)=O)C(=O)N[C@@H](C)C(=O)N[C@@H](C)C(=O)N[C@@H]([C@@H](C)O)C(=O)N1)[C@@H](C)O)C(C)C)C(=O)N[C@@H](CC(C)C)C(=O)N[C@@H](CO)C(=O)N1CCC[C@H]1C(=O)N[C@H](C(=O)N[C@@H](CC(N)=O)C(=O)N[C@H](C(=O)NCC(=O)N[C@@H](CO)C(=O)N[C@@H](CC(N)=O)C(=O)N[C@H](C(=O)N[C@@H](Cc1ccc(O)cc1)C(N)=O)[C@@H](C)O)C(C)C)[C@@H](C)O

Key:
[1] = target: T1, human amylin receptor (calcitonin receptor co-expressed with receptor activity modifying protein, RAMP3) (human, UniProt P30988 25-474; O60896 24-148); assay: cell-based or functional assay
T1 sequence (looked up) 1: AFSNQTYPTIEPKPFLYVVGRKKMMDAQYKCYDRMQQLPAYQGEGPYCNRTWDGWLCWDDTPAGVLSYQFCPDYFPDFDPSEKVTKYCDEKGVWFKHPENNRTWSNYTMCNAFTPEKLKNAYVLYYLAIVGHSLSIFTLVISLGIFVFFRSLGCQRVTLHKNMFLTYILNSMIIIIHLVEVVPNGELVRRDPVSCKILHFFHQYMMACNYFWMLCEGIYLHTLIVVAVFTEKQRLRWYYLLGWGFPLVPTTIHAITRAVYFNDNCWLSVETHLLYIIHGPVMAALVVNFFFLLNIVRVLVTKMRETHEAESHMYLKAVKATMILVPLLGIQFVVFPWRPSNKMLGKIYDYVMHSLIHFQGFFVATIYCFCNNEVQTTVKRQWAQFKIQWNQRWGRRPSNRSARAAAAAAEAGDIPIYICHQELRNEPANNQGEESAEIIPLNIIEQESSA
T1 sequence (looked up) 2: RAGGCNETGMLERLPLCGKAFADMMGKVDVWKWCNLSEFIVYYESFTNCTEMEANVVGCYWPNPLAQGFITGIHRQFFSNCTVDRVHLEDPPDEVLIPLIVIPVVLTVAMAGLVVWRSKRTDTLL

[2] = target: T2, human calcitonin receptor (human, UniProt P30988 25-474); assay: cell-based or functional assay
T2 sequence (looked up): T1 sequence (looked up) 1

Row | Binder | EC50 (cAMP production) [1] [nM] | Ratio (EC50 hCTR / EC50 hAMYR3) [1] | EC50 (cAMP production) [2] [nM]
1 | B1 | 0.417 | 2 | 0.792
2 | B2 | 1.46 | 24 | 34.7
3 | B3 | 0.655 | 9 | 6.18
4 | B4 | 1.33 | 5 | 6.07
5 | B5 | 1.77 | 6 | 10.7
